In patent US20170233441A1:

Experiments:
[1] = molecular target: BG505 SOSIP.664 trimer+sCD4 complex (HIV-1 strain BG505; human) (UniProt P01730)
[2] = molecular target: BG505 SOSIP.664 HIV-1 Env ectodomain trimer (HIV-1 strain BG505); experiment: crystal structure, interfaces between protomers
[3] = molecular target: gp120 subunit of BG505 SOSIP.664 (HIV-1 strain BG505); experiment: crystal structure; includes 216 Å^2 from glycan-protein interactions
[4] = molecular target: gp41 ectodomain subunit of BG505 SOSIP.664 (HIV-1 strain BG505); experiment: crystal structure, interfaces between protomers
[5] = molecular target: gp120 subunit of BG505 SOSIP.664 (HIV-1 strain BG505); experiment: crystal structure, interfaces between protomers

3074 antibody
t1/2 of CD4-induced exposure of the epitope [1]: 4.2 h

BG505 SOSIP.664 HIV-1 Env ectodomain trimer
buried surface of the trimer interfaces, contributed by each protomer [2]: 3140 Å^2

gp41 ectodomain subunit of BG505 SOSIP.664
buried surface within a single protomer [3]: 5270 Å^2
buried surface of the gp41-gp41 trimer interface [4]: 1920 Å^2

gp120 subunit of BG505 SOSIP.664
buried surface of the gp120-gp41 interface between protomers [4]: 360 Å^2
buried surface of the gp120-gp120 trimer interface [5]: 861 Å^2
